This data set can be described thus: yeast display, Sf9 membrane polyspecificity reagent, FACS + sequencing; frameworks hold sequencing errors. The procedure, abridged:
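Nanobodies from a synthetic yeast display library (Saccharomyces cerevisiae BJ5465), induced 36–48 hours with galactose, were stained 1 hour at 4 °C with 10% biotinylated, detergent-solubilized Sf9 membrane reagent, enriched on streptavidin microbeads, then FACS-sorted. Anti-HA (expression) and streptavidin (reagent binding) fluorescence set low and high (top ~1%) gates. Polyreactivity labels come from the gate of origin. Genes were colony-PCR amplified, MiSeq 2 × 250 sequenced and filtered by CDR length.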
As for “QVQLVESGGGLVQAGGSLRLSCAASGSIFPVYTMGWYRQAPGKERELVADIDSGGSTNYADSVKGRFTISRDNAKNTVYLQMNSLKPEVTAVYDCAADYYYYFYSLYIDPYAFDYWGLGTQVTVSS”, the “polyreactivity (PSR sort gate)” value is given as “low polyreactivity”.
To “QVQLVESGGGLVQAGGSLRLSCAASGSIFPWYAMGWYRQAPGKERELVAAITISGGSTHYADSEKGRFTISRDTAKNTVYLQLKSLKPEDTAVYYCAADFLPQSYNCYDYWGQGTQVTVSS” belongs “low polyreactivity”; to “QVQLVESGGGLVQAGGSLRLSCAASGSIFPWYTMGWYRQAPGKEREFVASISSSASDTYYADSVKGRFTISRDNAKNTVYLQMNSLKPEDTAVYYCAARAYYRYWHGNYRHYSFDYWGQGTQVTVSS”, “high polyreactivity”; to “QVQLVESGGGLVQAGGSLRLSCAASGSIFPWYVMGWYRQAPGKERELVAAISWNGGITYADSVKGRFTISRDNAKNTVYLQMNSLKPEDTGVYYCAAYYITYSYIEYDYWGQGTQVSVSS”, “high polyreactivity”.
For the sequence “QVQLVESGGGLVQAGGSLRLSCAASGSIFPYNAMGWYRQAPGKERELVAAIRFGGGSTYYSDSVKGRFTISRDNAKNTVYLQMNSLKPEDTAVYYCAAQVLQSAYLPFRFGYYYWGLGTQVTVSS”, the “polyreactivity (PSR sort gate)” value is on record as “low polyreactivity”.
With “QVQLVESGGGLVQAGGSLRLSCAASGSIFPYNAMGWYRQAPGKERELVAAITQSGGSTYYADSVKGRFTISRDNAKNTVYLQMNSLQPEDTAVYYCAADDYGPEGDYWGQGTQVTVSS” the entry was “low polyreactivity”; with “QVQLVESGGGLVQAGGSLRLSCAASGSIFPYNDMGWYRQAPGKERELVAAISDSAGSTYYADSVKGRFTISRDNAKNTVYLQMNSLKPEDTAVYYCAADSWDSQVVSYEYWGQGTQVTVSS”, “low polyreactivity”.
Turning to “QVQLVESGGGLVQAGGSLRLSCAASGSIFPYNVMGWYRPAPGQERELVAANTTGGRTNYADSVKGRFTISRDNAKNTVYLQMNSLKPEDTAVYYCAARYGYYDSRRWYYYSGQGTQVTVSS”, the “polyreactivity (PSR sort gate)” value is “high polyreactivity”.
For “QVQLVESGGGLVQAGGSLRLSCAASGSIFPYNVMGWYRQAPGKERELVAAISTRGGRTYYADSVKGRFTISRDNAKNTVYLQMNSLNPEDTAVYYCATAGGPYSASGYYWGQGTKVTVSS”, the “polyreactivity (PSR sort gate)” value is “high polyreactivity”.
Turning to “QVQLVESGGGLVQAGGSLRLSCAASGSIFPYNVMGWYRQAPGKERELVAAITRRGGSTYYADSVKGRFTISRDNAKNTVYLQMNSLKPEDTAVYYCAAVPYPRGKGYDYWGQGTQVTVSS”, the “polyreactivity (PSR sort gate)” value is recorded as “high polyreactivity”.
With “QVQLVESGGGLVQAGGSLRLSCAASGSIFPYYAMGWYRPAPGKERELVAGITSGTRTNYADSVKGRFTISRDNAKNTVYLQMNSLKPEDTAVYYCAAYYRAYRRDYYWGQGTQVTVSS” the entry was “high polyreactivity”.
Consider “QVQLVESGGGLVQAGGSLRLSCAASGSIFQDYTMGWYRQAPGKDRELVAAITDNGGSTYYADSVKGRFTISRDNAKNTVYLQMNSLKPEDTAVYYCAKDWDYSAPGYYLYGYWGQGTQVTVSS”, for which the “polyreactivity (PSR sort gate)” value is “low polyreactivity”.
For the sequence “QVQLVESGGGLVQAGGSLRLSCAASGSIFQFSAKGWYRQAPGKERELVAGINTSGGSTYYADSVKGRFTISRDNAKNTVYLQMHSLKPEDTAVYYCMARSRYDTGPQRGYDYWGQGTQVTVSS”, the “polyreactivity (PSR sort gate)” value was “low polyreactivity”.
With “QVQLVESGGGLVQAGGSLRLSCAASGSIFQFYTMGWYRQAPGKERELVAAISSTGSTNYADSVKGRFTISRDNAKNTVYLQMNSLKPEDTAVYYCAAVGTYLAGYQFDYWGQGTQVTVSS”, the “polyreactivity (PSR sort gate)” value is recorded as “low polyreactivity”.
Take “QVQLVESGGGLVQAGGSLRLSCAASGSIFQGNAMGWYRQAPGKERELVAAISSRGGTTYYADSVKGRFTISRDNAKNTVYLQMNSLKPEDTAVYYCARDSGYYWYYRYGYWGQGTQVTVSS”: the “polyreactivity (PSR sort gate)” value was “high polyreactivity”.
With “QVQLVESGGGLVQAGGSLRLSCAASGSIFQGYAMGWYRQAPGKERELVAAITSSGGSTYYADSVKGRFTISRDNAKNTVYLQMNSLKPEDTAVYYCAARGYSHVASRLYYYWGQGTQVTVSS”, the “polyreactivity (PSR sort gate)” value is on record as “high polyreactivity”.
For the sequence “QVQLVESGGGLVQAGGSLRLSCAASGSIFQGYAMGWYRQAPGKERELVAVITSRVGRTYYADSVKGRFTISRDNAKNTVYLQMNSLKPEDTAVYYCAAKLYGGWYRDFAASGMDYWGQGTQVTVSS”, the “polyreactivity (PSR sort gate)” value is given as “high polyreactivity”.
“QVQLVESGGGLVQAGGSLRLSCAASGSIFQIYAMGWYRQAPGKERELVATISSGGRTTYADSVKGRFTISRDNAKNSVYLQMNSLKPEDTAVYYCAAKLEWLSHYYYWGQGTQVTVSS”: the “polyreactivity (PSR sort gate)” value is “low polyreactivity”.
Regarding “QVQLVESGGGLVQAGGSLRLSCAASGSIFQKYAMGWYRPAPGKERELVAAISSGGGRTYYADSVKGRFTISRDNAKNTVYLQMNSLKPEDTAVYYCAARGSYTSIFDYWGQGTQVTVSS”, the “polyreactivity (PSR sort gate)” value is given as “high polyreactivity”.
For “QVQLVESGGGLVQAGGSLRLSCAASGSIFQLNAMGWYRQAPGKERELVAAITWSGDSTYYADSVKGRFTISRDNAKNTVSLQMNSRKPEDTAVYYCAADVLTTPPPREFEYWGQGTQVTVSS”, the “polyreactivity (PSR sort gate)” value was “high polyreactivity”.
“QVQLVESGGGLVQAGGSLRLSCAASGSIFQPNMGWYRQAPGKERELVASITTGTTKYADSVKGRFTISRDNAKNTVYLQMNSLKPEDTAVYYCAADLQATVYLIFGYWGQGTQVTVSS”: the “polyreactivity (PSR sort gate)” value is recorded as “low polyreactivity”.
Take “QVQLVESGGGLVQAGGSLRLSCAASGSIFQPYAMGWYRQAPGKEWELVAAISRGGTTYYADSVKGRFTISRDNAKNTVYLQMNSLNPEDTAVYYCAVKGYRYVTRYDYWGQGTQVTVSS”: the “polyreactivity (PSR sort gate)” value was “high polyreactivity”.
“QVQLVESGGGLVQAGGSLRLSCAASGSIFQRNAMGWYRQAPGKERELVAAISWSGGSTYYADSVKGRFTISRDNAKNSVSLQMNSVKPEDTAVYYCARYYRPYDWGQGTQVTVSS”: the “polyreactivity (PSR sort gate)” value is on record as “high polyreactivity”.
In the case of “QVQLVESGGGLVQAGGSLRLSCAASGSIFQSYAKGWYRQAPGKERELVAAISRGGSTYYADSVKGRFTISRDNAKNTVYLQMNSLKPEDTAVYYCAAGSGGGKYLYYYWGQGTQVTVSS”, the “polyreactivity (PSR sort gate)” value is given as “low polyreactivity”.
On to “QVQLVESGGGLVQAGGSLRLSCAASGSIFQSYAMGWYRQAPGKERELVAAISYSGDGTFYADSVKGRFTISRDNAKNTVYLQMNSLKPEDTAVYYCAASSTGYGGSTYYYWGQGTQVTVSS”, for which the “polyreactivity (PSR sort gate)” value is listed as “low polyreactivity”.
With “QVQLVESGGGLVQAGGSLRLSCAASGSIFQYNAMGWYRQAPGKRELVAAINRSGGSTYYADSVKGRFTISRDYAKNTVYLQMNSLKPEDTAVYYCAAVRYDRARGSPYPDRVGVYSWGQGTQVTVSS”, the “polyreactivity (PSR sort gate)” value is recorded as “high polyreactivity”.
In the case of “QVQLVESGGGLVQAGGSLRLSCAASGSIFQYNDMGWYRQQPGKEREFVADISSSGGSTYYADSVKGRFTISRDTAKNTVYLQMNSLKPEDTEVYYCNADPGYDFYRDEYWGQGTQVTVSS”, the “polyreactivity (PSR sort gate)” value is on record as “low polyreactivity”.
To “QVQLVESGGGLVQAGGSLRLSCAASGSIFQYTMGWYRQAPVKEMELVAAITRSGSSTYYADSVKGRFTISRDNAKNTVYLQMNSLKPEDTAVYYCAHNIRRVLGYGSWGQGTQVTVSS” belongs “high polyreactivity”; to “QVQLVESGGGLVQAGGSLRLSCAASGSIFQYYAMGWYRQAPGKERELVAAISSGDTTNYADSVKGRFTISRDNAKNTVYLQMNSLKPEDTAVYYCNAEGGWYDWDDYWGQGTQVTVSS”, “low polyreactivity”; to “QVQLVESGGGLVQAGGSLRLSCAASGSIFRANAMGWYRQAPGKERELVAAISRRGGNTYYADSVKGRFTISRDNAKNTVYLQMNSLKPEDTAVYYCAADRSEYDYWGQGTQVTVSS”, “high polyreactivity”.
On to “QVQLVESGGGLVQAGGSLRLSCAASGSIFRAYAMGWDRQAPGKERELVATISGSGGSRSYADSVKGRFTISRDNAKNTVDLQMNSLKPEDTAVYYCARDRYYKYTSYDYWGQGTQVTVSA”, for which the “polyreactivity (PSR sort gate)” value is reported as “low polyreactivity”.
As to “QVQLVESGGGLVQAGGSLRLSCAASGSIFRAYAMGWYRQAPGKEMELVAAISSGVSTNYADSVKGRFTISRDNAKNTVYLQMNSLKPEDTAVYYCNTDKYSESYRSYEYWGQGTQVTVSS”, the “polyreactivity (PSR sort gate)” value is listed as “low polyreactivity”.
Turning to “QVQLVESGGGLVQAGGSLRLSCAASGSIFRAYAMGWYRQAPGKERELVAAISWGGGSTSYADSVKGRFTISRDNAKNTVYLQMNSLNPEDTAVYYCAARFIWPARYYSWGQGTQVTVSS”, the “polyreactivity (PSR sort gate)” value is listed as “high polyreactivity”.
As for “QVQLVESGGGLVQAGGSLRLSCAASGSIFRAYAMGWYRQAPGKERELVAAITGNGARTYYADSVKGRFTISRDNAKNTVYLQMNSLKPEDTAVYYCAKRGNRQHRWWYDYWGQGTQVTVSS”, the “polyreactivity (PSR sort gate)” value is recorded as “low polyreactivity”.
With “QVQLVESGGGLVQAGGSLRLSCAASGSIFRDYVMGWYRQAPGKERELVAAISGNDGSTYYADSVKGRFTISRDNAKNTVYLQMNSLKPEDTAVYYCNADEASTVPQFYSYLDFDYWGQGTQVTVSS”, the “polyreactivity (PSR sort gate)” value is recorded as “low polyreactivity”.
“QVQLVESGGGLVQAGGSLRLSCAASGSIFRFYAMGWYRQAPWKERELVAGITWSGASTYYADSVKGRFTISRDNAKNTVYLQMNSLKPEDNAVYYCAAKSLIVRYDSWGQGTQVTVSS”: the “polyreactivity (PSR sort gate)” value is recorded as “high polyreactivity”.
Regarding “QVQLVESGGGLVQAGGSLRLSCAASGSIFRGNALGWYRQAPGKERELVAAITGSGGNTYYADSVKGRFTISRDNAKNTVYLQMNSLKPEDTAVYYCNAQRYRVVVYNSHGWQTRNYWGQGTQVTVSS”, the “polyreactivity (PSR sort gate)” value is reported as “low polyreactivity”.
Regarding “QVQLVESGGGLVQAGGSLRLSCAASGSIFRGNAMGWYRQAPGKERELVAAITYNDGGTYYADSVKGRFTISRDNAKNTVYLQMNSLKPEDTAVYYCAAVGTGNKSILYDYWGQGTQVTVSS”, the “polyreactivity (PSR sort gate)” value is “low polyreactivity”.
To “QVQLVESGGGLVQAGGSLRLSCAASGSIFRGYGMGWYRQAPGKERELVAANNYSGGSTYYADSVKGRFTISRDNAKNTVYLQMNSLKPEDTAVYYCNKVYYRQRGEYYYWGQGTQVTVSS” belongs “high polyreactivity”; to “QVQLVESGGGLVQAGGSLRLSCAASGSIFRGYTMGWYRQAPGKERELFAAISTRGGSTYYADSVKGRFTISRDNAKNTVYLQMNSLKPEDTAVYYCNARSRGRASGYDYWGQGTQVTVSS”, “high polyreactivity”.
“QVQLVESGGGLVQAGGSLRLSCAASGSIFRGYTMGWYRQATGKERELVATISWSGGSTYYADSVKGRFTISRDNAKNTVYLQMNCLKPEDTAVYYCAAVWYLGIPYDYWGQGTQVTVSS”: the “polyreactivity (PSR sort gate)” value is on record as “high polyreactivity”.

The values above are taken from the nanobody polyreactivity screen of Harvey et al. (2022).
